Experiment [1] deals with T1, ErbB3 on the cell surface (human, UniProt P21860 20-1342).
T1 construct: whole, on cells
The experiment can be described thus: flow cytometry on cells, 2 ug/mL, N-terminal VD. For orientation: In flow cytometry, cells or beads pass a laser one at a time.
Description: (§1) Stable cell lines overexpressing a cell-surface antigen of interest or human tumor cell lines were harvested from tissue culture flasks and resuspended in phosphate buffered saline (PBS) containing 5% fetal bovine serum (PBS/FBS). Prior to staining, human tumor cells were incubated on ice with (100 μl) human IgG at 5 μg/ml in PBS/FCS. 1-5×10⁵ cells were incubated with antibody or DVD-Ig (2 μg/mL) in PBS/FBS for 30-60 minutes on ice. […] After 30 minutes incubation on ice, cells were washed twice and resuspended in PBS/FBS. Fluorescence was measured using a Becton Dickinson FACSCalibur (Becton Dickinson, San Jose, Calif.).
(§2) The geometric mean is the n root of the multiplication product of n fluorescent signals (a1×a2×a3 . . . an). With log-transformed data the geometric mean is used to normalize the weighting of the data distribution.

Experiment [2] concerns the target T2, EGFR on the cell surface (human, UniProt P00533 25-1210).
T2 construct: whole, on cells
The experiment can be described thus: flow cytometry on cells, 2 ug/mL, C-terminal VD.
Description: as §1, §2

The target in experiment [3] is T2, EGFR on the cell surface. In words: flow cytometry on cells, 2 ug/mL, N-terminal VD.
Description: as §1, §2
Experiment [4] has as its target T1, ErbB3 on the cell surface. The experiment can be described thus: flow cytometry on cells, 2 ug/mL, C-terminal VD.
Description: as §1, §2
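Further: cells stained for 30 to 60 min on ice.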

B1: DVD2293 (bispecific antibody)
VH: EVQLVESGGGLVQPGGSLRLSCAASGFTFSIYSMNWVRQAPGKGLEWVSYISSSSSTIYYADSVKGRFTISRDNAKNSLYLQMNSLRDEDTAVYYCARDRGDFDAFDIWGQGTMVTVSSASTKGPEVQLVESGGGLVQPGGSLRLSCAASGFSLTNYGVHWVRQAPGKGLEWLGVGWSGGNTDYNTPFTSRLTINKDNSKNTVYLQMNSLRAEDTAVYYCARALTWYDYEFAYWGQGTLVTVSS
VL: DIQMTQSPSSLSASVGDRVTITCQASQDITNYLNWYQQKPGKAPKLLIYDASNLETGVPSRFSGSGSGTDFTFTISSLQPEDIATYNCQQCENFPITFGQGTRLEIKRTVAAPDILLTQSPGTLSLSPGERATLSCRASQSIYTNIHWYQQKPGQAPRLLIKYASESISGIPDRFSGSGSGTDFTLTISRLEPEDFAVYYCQQNLNWPTTFGQGTKLEIK
notes: DVD-Ig, outer AB063 / inner AB400
In the case of B1, the “GEO MEAN” value in experiment [1] is 135.

B2: DVD2295 (bispecific antibody)
VH: EVQLLESGGGLVQPGGSLRLSCAASGFTFSHYVMAWVRQAPGKGLEWVSSISSSGGWTLYADSVKGRFTISRDNSKNTLYLQMNSLRAEDTAVYYCTRGLKMATIFDYWGQGTLVTVSSASTKGPEVQLVESGGGLVQPGGSLRLSCAASGFSLTNYGVHWVRQAPGKGLEWLGVGWSGGNTDYNTPFTSRLTINKDNSKNTVYLQMNSLRAEDTAVYYCARALTWYDYEFAYWGQGTLVTVSS
VL: QSALTQPASVSGSPGQSITISCTGTSSDVGSYNVVSWYQQHPGKAPKLIIYEVSQRPSGVSNRFSGSKSGNTASLTISGLQTEDEADYYCCSYAGSSIFVIFGGGTKVTVLGQPKAAPDILLTQSPGTLSLSPGERATLSCRASQSIYTNIHWYQQKPGQAPRLLIKYASESISGIPDRFSGSGSGTDFTLTISRLEPEDFAVYYCQQNLNWPTTFGQGTKLEIK
notes: DVD-Ig, outer AB116 / inner AB400
For B2, the “GEO MEAN” value in experiment [1] came to 80; in experiment [2], 317.

B3: DVD2294 (bispecific antibody)
VH: EVQLVESGGGLVQPGGSLRLSCAASGFSLTNYGVHWVRQAPGKGLEWLGVGWSGGNTDYNTPFTSRLTINKDNSKNTVYLQMNSLRAEDTAVYYCARALTWYDYEFAYWGQGTLVTVSSASTKGPEVQLLESGGGLVQPGGSLRLSCAASGFTFSHYVMAWVRQAPGKGLEWVSSISSSGGWTLYADSVKGRFTISRDNSKNTLYLQMNSLRAEDTAVYYCTRGLKMATIFDYWGQGTLVTVSS
VL: DILLTQSPGTLSLSPGERATLSCRASQSIYTNIHWYQQKPGQAPRLLIKYASESISGIPDRFSGSGSGTDFTLTISRLEPEDFAVYYCQQNLNWPTTFGQGTKLEIKRTVAAPQSALTQPASVSGSPGQSITISCTGTSSDVGSYNVVSWYQQHPGKAPKLIIYEVSQRPSGVSNRFSGSKSGNTASLTISGLQTEDEADYYCCSYAGSSIFVIFGGGTKVTVL
notes: DVD-Ig, outer AB400 / inner AB116
On to B3, for which the figures for the “GEO MEAN” value in experiment [3] and in experiment [4] were 618 and 15, respectively.

B4: DVD2296 (bispecific antibody)
VH: EVQLVESGGGLVQPGGSLRLSCAASGFSLTNYGVHWVRQAPGKGLEWLGVGWSGGNTDYNTPFTSRLTINKDNSKNTVYLQMNSLRAEDTAVYYCARALTWYDYEFAYWGQGTLVTVSSASTKGPQVQLQQWGAGLLKPSETLSLTCAVYGGSFSGYYWSWIRQPPGKGLEWIGEINHSGSTNYNPSLKSRVTISVETSKNQFSLKLSSVTAADTAVYYCARDKWTWYFDLWGRGTLVTVSS
VL: DILLTQSPGTLSLSPGERATLSCRASQSIYTNIHWYQQKPGQAPRLLIKYASESISGIPDRFSGSGSGTDFTLTISRLEPEDFAVYYCQQNLNWPTTFGQGTKLEIKRTVAAPDIEMTQSPDSLAVSLGERATINCRSSQSVLYSSSNRNYLAWYQQNPGQPPKLLIYWASTRESGVPDRFSGSGSGTDFTLTISSLQAEDVAVYYCQQYYSTPRTFGQGTKVEIK
notes: DVD-Ig, outer AB400 / inner AB062
In the case of B4, the “GEO MEAN” value in experiment [3] came to 490; in experiment [4], 16.6.

Source of the values: patent US20130195871A1 (AbbVie / Abbott, published 2013).
